This passage reports self-cleavage results from the RNAGym collection of RNA variant scans (doi:10.7554/elife.80360).

B1: Hairpin Ribozyme (parent)
chain: GUCCUCUUUCACGUGCGCGUGAAAGAGAGAAGUGAACCAGAGAAACACACGUUGUGGUAUAUUACCUGGUA

This data set covers variants of B1. The data set can be described thus: self-cleavage, relative activity (ratio to wild type); higher = more cleavage; co-transcriptional.
G17U U55C: the self-cleavage came out at 0.301. Take U63G U70G: the self-cleavage is 0.182. As for A39G A41C, the figure is 0.267; as for A11C G57U, 0.323; as for G21C A28U, 0.31. In the case of U52A U53C, the self-cleavage was 1.32.

Consider G13A C38A, for which the self-cleavage was determined as 0.154.

With A22G A41C, the self-cleavage stood at 1.01. Turning to C3A U67C, the self-cleavage came out at 0.155. As for C6A C16A, the figure is 0.561; as for G19C C50A, 0.264; as for A26U A61C, 0.226. Regarding G57C A61C, the self-cleavage is 0.236. For G56A U63C, the self-cleavage was 0.286. Consider C4U A11U, for which the self-cleavage was found to be 0.256. Consider G29C A39U, for which the self-cleavage amounted to 0.0768. Next, C3A C38G: 0.156; U2A C18U: 0.314; G51U G69C: 0.519. As for G17C A44U, the figure is 0.0541; as for G1C C18U, 0.139. In the case of U52G U55A, the self-cleavage worked out at 0.135.

Regarding G21A G34A, the self-cleavage was 0.968. Consider G19C A41U, for which the self-cleavage was 1.11.

Turning to A24C A47U, the self-cleavage is 0.0898. For C3U U52C, the self-cleavage was determined as 0.611. Take U33C C37A: the self-cleavage was found to be 0.182.

As to U9C G34C, the self-cleavage was found to be 1.3. In the case of C3U G27A, the self-cleavage is 0.187. For A47C U67A, the self-cleavage was determined as 0.128.

For the variant A26C A49C, the self-cleavage came to 0.218. As for A28G G42U, the self-cleavage amounted to 0.375. Next, A22G A31G: 0.744. G51A U55A: the self-cleavage turned out to be 0.34. For U52C U62C, the self-cleavage is 0.248. G57U U60C: the self-cleavage worked out at 0.246. In the case of C46G U55G, the self-cleavage was determined as 0.107.

A26U G68A: the self-cleavage is 0.23. Regarding C18U G56C, the self-cleavage was determined as 0.179. Consider A36C G51A, for which the self-cleavage worked out at 0.799. For A23U A36C, the self-cleavage came out at 0.596. For the variant U20C U53G, the self-cleavage turned out to be 0.708.

Consider A28U A36U, for which the self-cleavage turned out to be 0.276.

Regarding A44G C50A, the self-cleavage came out at 0.198. In the case of C18U A39C, the self-cleavage stood at 0.66. For the variant G57U C65G, the self-cleavage was found to be 0.134. Take C6G C16A: the self-cleavage was determined as 0.54. C38A G57C: the self-cleavage is 0.157.

Turning to G29U G69A, the self-cleavage was 0.105. Turning to G1A A71U, the self-cleavage was determined as 0.196. With C3G A30C, the self-cleavage is 0.0439. As to C6A U67G, the self-cleavage was determined as 0.173.

As for U2A C10G, the self-cleavage was determined as 0.238. Next, A23C C48A: 0.0725.

On to A26G C48U, for which the self-cleavage was determined as 0.18. For the variant C10A G25U, the self-cleavage turned out to be 0.356. For the variant G13U A61U, the self-cleavage turned out to be 0.181. As for A11G A61C, the figure is 0.14; as for G27C U58G, 0.188. As for C37U U63A, the self-cleavage worked out at 0.24. In the case of A47C G69U, the self-cleavage turned out to be 0.0997.

On to C12G G51C, for which the self-cleavage was 0.753.

For A31C G57U, the self-cleavage came out at 0.0476. In the case of G17A A43C, the self-cleavage stood at 0.0401. Consider A22U U52C, for which the self-cleavage is 0.631. As to A30G A59U, the self-cleavage came out at 0.305.

Take C46U U53A: the self-cleavage is 0.215. Take U14A G68A: the self-cleavage stood at 0.173. For G21A U52G, the self-cleavage stood at 0.784. Next, A23G U52C: 0.713; C16G A35U: 0.693. Take G54A U62C: the self-cleavage is 0.195. In the case of U55C U63G, the self-cleavage turned out to be 0.119. In the case of C37G G51U, the self-cleavage was found to be 0.405. As for A59U A64U, the figure is 0.191; as for G17C G29U, 0.134.

With C10A G40C, the self-cleavage was 0.158. As to C10U G69A, the self-cleavage is 0.405. As for G19U U55G, the figure is 0.313. With C18G G27C, the self-cleavage turned out to be 0.0884. Next, A26G U53C: 0.565; U9A G27C: 0.239; U9A G27U: 0.326. Turning to C16A U70C, the self-cleavage came to 0.978.

For C6G C46U, the self-cleavage was 0.143. Turning to A26C G56C, the self-cleavage worked out at 0.0943.

G40C U60A: the self-cleavage was found to be 0.0252. Turning to A36G A39U, the self-cleavage is 0.517. As for G1U U70A, the self-cleavage is 0.111.

G15A G32U: the self-cleavage is 0.0825.

A28C A39U: the self-cleavage amounted to 0.127.

Regarding U7A G29U, the self-cleavage came to 0.178. As for C3U G34C, the self-cleavage was determined as 1.03. Next, C3G C4G: 0.244; A22U G56A: 0.147; A47U U60G: 0.0964. For G51A G56C, the self-cleavage is 0.148. Next, A26G A43C: 0.11. With A26G A31G, the self-cleavage turned out to be 0.884. As for U9A U33C, the figure is 0.177. Consider G13U G40A, for which the self-cleavage worked out at 0.342. Regarding C6U G57U, the self-cleavage worked out at 0.324. U20C A45G: the self-cleavage stood at 0.165.

For U2G U58C, the self-cleavage is 0.384. Turning to U55G U58C, the self-cleavage was determined as 0.651.

With A44G A47U, the self-cleavage was 0.163. On to U8A C10G, for which the self-cleavage was 0.44. For the variant C18A G34A, the self-cleavage is 1.33. As for U67A G69U, the self-cleavage was 0.321. For C37U U53G, the self-cleavage was 0.364. For the variant G34A U67G, the self-cleavage came out at 0.346. For the variant U7C C37U, the self-cleavage was determined as 0.494.

With U33A G34C, the self-cleavage was 0.777.

On to G42C A59U, for which the self-cleavage came to 0.156.

Take U5C A35U: the self-cleavage turned out to be 0.0604. Regarding A59U C66A, the self-cleavage is 0.128. As for G57U A59C, the self-cleavage is 0.188. As for U52A U63G, the self-cleavage worked out at 0.121. In the case of C16G A71G, the self-cleavage is 1.05. As for C4U C6A, the figure is 0.0821; as for C18A G32A, 0.169. As for C3G G69U, the figure is 0.141. With U7A U55C, the self-cleavage stood at 0.175. Take C48A G54A: the self-cleavage was found to be 0.169. On to C18A U20A, for which the self-cleavage was found to be 0.917.

In the case of G13C G21U, the self-cleavage is 0.49.

On to G27C A31C, for which the self-cleavage was determined as 0.131. As for U5G A28C, the figure is 0.0791; as for U33C A43U, 0.231.

With C10A A23G, the self-cleavage was 0.6. In the case of U33G G40A, the self-cleavage was 0.245.

C12G C50A: the self-cleavage was 0.306.

In the case of C12U A49U, the self-cleavage turned out to be 0.159. As for U5G G40C, the self-cleavage worked out at 0.14. Regarding C12G G57C, the self-cleavage was found to be 0.165.

On to C48G G69U, for which the self-cleavage came out at 0.0941.

In the case of G27U G42A, the self-cleavage was determined as 0.149.

Turning to G42U C65G, the self-cleavage is 0.209. With G1C A43U, the self-cleavage is 0.171. With C6A C65U, the self-cleavage was determined as 0.265. As for C46A U58G, the self-cleavage is 0.158. As for A36U C37U, the figure is 0.21. As for G27A A71U, the figure is 0.28.

Turning to C3G C16U, the self-cleavage turned out to be 0.305. Turning to G29C A59C, the self-cleavage amounted to 0.205.

Consider A47C U62G, for which the self-cleavage was 0.227. For C16G U33G, the self-cleavage came to 0.12.

In the case of C4G G40C, the self-cleavage was 0.164. With U7G C65G, the self-cleavage worked out at 0.31. Regarding G29C G34C, the self-cleavage was determined as 0.116.

For the variant C18A A71G, the self-cleavage was 1.14. Take G29C G54C: the self-cleavage was determined as 0.0908. For the variant U14C G25C, the self-cleavage stood at 0.728.

Take G27A G56A: the self-cleavage was determined as 0.116.

Turning to G25C G42U, the self-cleavage was 0.182. U2C U33C: the self-cleavage worked out at 0.223. With G15C A36C, the self-cleavage is 0.678. On to A35C C50G, for which the self-cleavage amounted to 0.37.

As for A35U A39G, the self-cleavage came out at 0.433. On to A36G U62A, for which the self-cleavage is 0.179. Consider A22G G29A, for which the self-cleavage was 0.121.

Regarding C46G U63A, the self-cleavage was found to be 0.279.

As for A59G C65A, the self-cleavage was 0.155. As for G17C U63A, the figure is 0.193. As for C38A U58G, the figure is 0.204. In the case of G13C C38G, the self-cleavage worked out at 0.179.

Turning to C12A C46G, the self-cleavage is 0.161.
